Laboratory results as given in publication PMC8386121.

Target: recombinant human PD-L1-Fc fusion protein (dimeric form) (human)
Assay: SEC; SE-HPLC of the two bought PD-L1 ligands (Supplementary Figure S1); conditions not given

recombinant human PD-L1-Fc fusion protein (dimeric form)
stoichiometry N: 2
